Experimental data taken from patent US12121566B2, “Methods for treating gout” (Horizon Therapeutics USA, Inc., priority 2019, dated 2024).
Like-named read-outs stand apart in the source and are kept apart here.

What was measured:
[1] = test system: subjects weighing ≥120 kg; experiment: Analysis of prior pegloticase randomized clinical trials by body weight (>=120 kg); assay type: in vivo, human; details: ≥120 kg group
[2] = test system: patients with chronic gout refractory to conventional therapy; details: cited from earlier work
[3] = test system: patients with chronic gout refractory to conventional therapy; experiment: Adverse reactions in pre-marketing controlled clinical trials of KXX; assay type: in vivo, human
Protocol: During the second 3 months of treatment, a lower proportion of pegloticase-treated patients experienced flares than patients receiving placebo. The incidence of flares during this time period was lowest in the group receiving pegloticase 8 mg every 2 weeks than in the group who received pegloticase 8 mg every 4 weeks, as was the incidence of infusion-related reactions (26% with biweekly dosing vs. 40% with the every-4-week dosing regimen). Both infusion reactions (IRs) and gout flares were least common in patients with sustained urate-lowering responses to treatment and those who received bi-weekly treatment. In most pegloticase-treated patients with IRs, a loss of response to pegloticase (return to SUA>6 mg/dL) preceded the time of the first IR (20/21; 95%).
The most commonly reported serious adverse reactions from pre-marketing controlled clinical trials were anaphylaxis, which occurred at a frequency of 6.5% in patients treated with KXX 8 mg every 2 weeks, compared to none with placebo; infusion reactions, which occurred at a frequency of 26% in patients treated with KXX 8 mg every 2 weeks, compared to 5% treated with placebo; and gout flares, which were more common during the first 3 months of treatment with KXX compared with placebo. All patients in pre-marketing controlled clinical trials were pre-treated with an oral antihistamine, intravenous corticosteroid and/or acetaminophen to prevent anaphylaxis and infusion reaction.
The data described below reflect exposure to KXX in patients with chronic gout refractory to conventional therapy in two replicate randomized, placebo-controlled, double-blind 6-month clinical trials: 85 patients were treated with KXX 8 mg every 2 weeks; 84 patients were treated with KXX 8 mg every 4 weeks; and 43 patients were treated with placebo. These patients were between the ages of 23 and 89 years (average 55 years); 173 patients were male and 39 were female; and 143 patients were White/Caucasian, 27 were Black/African American, 24 were Hispanic/Latino and 18 were all other ethnicities. Common co-morbid conditions among the enrolled patients included hypertension (72%), dyslipidemia (49%), chronic kidney disease (28%), diabetes (24%), coronary artery disease (18%), arrhythmia (16%), and cardiac failure/left ventricular dysfunction (12%).
Diagnostic criteria of anaphylaxis were skin or mucosal tissue involvement, and, either airway compromise, and/or reduced blood pressure with or without associated symptoms, and a temporal relationship to KXX or placebo injection with no other identifiable cause. Using these clinical criteria, anaphylaxis was identified in 14 (5.1%) of 273 total patients studied in the clinical program of IV KXX. The frequency was 6.5% for the every 2-week dosing regimen (8 of 123 patients), and 4.8% for the 4-week dosing frequency (6 of 126) of KXX. There were no cases of anaphylaxis in patients receiving placebo.

[4] = test system: anti-pegloticase antibodies, anti-PEG antibodies; details: cited from earlier work
rats = experiment: Reproductive toxicity and fertility in rats; assay type: in vivo, rat
Description: The genotoxic potential of pegloticase has not been evaluated.

[5] = test system: patients with chronic gout refractory to conventional therapy; details: bi-weekly or every 4 weeks for up to 30 months, 149 patients; cited from earlier work
rabbits = experiment: Reproductive toxicity in rabbits; assay type: in vivo, rabbit
[6] = Stability of pegloticase diluted in infusion bags; assay type: physicochemical; details: at 2° C. to 8° C. and at room temperature (20° C. to 25° C.)
Protocol: Pegloticase-diluted in infusion bags is stable for 4 hours at 2° C. to 8° C. (36° F. to 46° F.) and at room temperature (20° C. to 25° C., 68° F. to 77° F.); however, it is recommended that the diluted solution be stored under refrigeration, not frozen, protected from light, and used within 4 hours of dilution. Before administration, the diluted solution of pegloticase should be allowed to reach room temperature. Pegloticase in a vial or in an IV infusion fluid should never be subjected to artificial heating.
KXX diluted in infusion bags is stable for 4 hours at 2° to 8° C. (36° to 46° F.) and at room temperature (20° to 25° C., 68° to 77° F.). However, it is recommended that diluted solutions be stored under refrigeration, not frozen, protected from light, and used within 4 hours of dilution. Before administration, allow the diluted solution of KXX to reach room temperature. KXX in a vial or in an intravenous infusion fluid should never be subjected to artificial heating (e.g., hot water, microwave).

[7] = KXX 8 mg every 2 weeks (N = 85)

With pegloticase the “impact on serum urate” value [1] was “less”, the “initial serum peak of pegloticase (Cmax)” value [1] was “lower” and the “tendency to become non-responders” value [1] was “greater tendency to become non-responders”. The “incidence of infusion-related reactions” value ([2]; pooled Phase 3, 8 mg biweekly dosing) was 26%, the “incidence of infusion-related reactions” value ([2]; pooled Phase 3, 8 mg every-4-week dosing regimen) was 40% and the “patients with IRs in whom loss of response (return to SUA >6 mg/dL) preceded the first IR” value ([2]; pooled Phase 3, 20/21) was 95%. The frequency of anaphylaxis ([3]; 4-week dosing frequency (6 of 126)) was 4.8%, the “anaphylaxis in total patients studied in the clinical program of IV KXX” value ([3]; 14 of 273 total patients) was 5.1% and the “patients with infusion reactions” value ([3]; KXX 8 mg every 2 weeks) was 26%. For the same substance, the “Adverse reaction: Anaphylaxis” value [3, 7] was 4 (5%) N (%), the “Adverse reaction: Chest Pain” value [3, 7] was 5 (6%) N (%) and the “Adverse reaction: Constipation” value [3, 7] was 5 (6%) N (%). The “Adverse reaction: Contusion or Ecchymosis” value [3, 7] was 9 (11%) N (%), the “Adverse reaction: Gout Flare” value [3, 7] was 65 (77%) N (%) and the “Adverse reaction: Infusion reaction” value [3, 7] was 22 (26%) N (%). The “Adverse reaction: Nasopharyngitis” value [3, 7] was 6 (7%) N (%), the “Adverse reaction: Nausea” value [3, 7] was 10 (12%) N (%) and the “Adverse reaction: Vomiting” value [3, 7] was 4 (5%) N (%). The “patients with infusion reactions” value ([3]; KXX 8 mg every 4 weeks) was 41%, the “cases of congestive heart failure exacerbation” value ([3]; during the trials, KXX 8 mg every 2 weeks) was “Two” and the frequency of anaphylaxis ([3]; every 2 weeks dosing regimen (8 of 123 patients)) was 6.5%. For the same substance, the “percentage of patients with any gout flare” value (from here on “percentage of patients”) ([3]; first 3 months, KXX 8 mg every 2 weeks) was 74%, the “percentage of patients” value ([3]; first 3 months, KXX 8 mg every 4 weeks) was 81% and the “infusion reaction manifestation: chest discomfort, frequency” value ([3]; human, in vivo) was 9.5%. For the same substance, the “infusion reaction manifestation: chest pain, frequency” value ([3]; human, in vivo) was 9.5%, the “infusion reaction manifestation: dyspnea, frequency” value ([3]; human, in vivo) was 7.1% and the “infusion reaction manifestation: erythema, frequency” value ([3]; human, in vivo) was 9.5%. For the same substance, the “infusion reaction manifestation: pruritus, frequency” value ([3]; human, in vivo) was 9.5%, the “infusion reaction manifestation: urticaria, frequency” value ([3]; human, in vivo) was 10.6% and the “infusion reactions occurring with the first infusion” value ([3]; human, in vivo) was “approximately 3%”. For the same substance, the “infusion reactions that occurred during the time of infusion” value ([3]; human, in vivo) was “approximately 91%”, the “reactions in patients with glucose-6-phosphate dehydrogenase (G6PD) deficiency” value ([3]; human, in vivo) was “Life threatening hemolytic reactions and methemoglobinemia have been reported” and the “percentage of patients” value ([3]; subsequent 3 months, KXX 8 mg every 2 weeks) was 41%. For the same substance, the “percentage of patients” value ([3]; subsequent 3 months, KXX 8 mg every 4 weeks) was 57%, the “patients with antibody titer exceeding 1:2430 at any time who maintained a response” value ([4]; another study, 7 of 65) was 10.8% and the “patients with titers exceeding 1:2430 who developed IRs” value ([4]; another study, 31 of 52) was 60%. For the same substance, the “patients who never had an antibody titer above 1:2430 who maintained a response” value ([4]; another study, 58/65) was 89.2%, the “patients who developed high titer anti-pegloticase antibodies and subsequently lost response” value ([4]; one study, 69 of 169 patients) was 41% and the “participants with high antibody titers who maintained a response (serum urate <6 mg/dL)” value ([4]; second study) was 1 of 52. The “participants with high titers who developed IR” value ([4]; second study) was 60%, the “mean fetal body weights” value (rats; approximately 10 times the MRHD, maternal doses up to 10 mg/kg twice weekly) was “No effects” and the “mean fetal and pup body weights” value (rats; approximately 50 times the MRHD, maternal doses up to 40 mg/kg every other day) was “Statistically significant decreases”. For the same substance, the teratogenicity (rats; approximately 50 times the MRHD, maternal doses up to 40 mg/kg twice weekly) was “not teratogenic”, the impairment on fertility (rats; doses up to 40 mg/kg every other day (approximately 50 times the MRHD)) was “no evidence of impairment” and the long-term safety [5] was “No new safety signals were observed”. The “mean fetal body weights” value (rabbits; approximately 25 times the MRHD, maternal doses up to 10 mg/kg twice weekly) was “No effects”, the “mean fetal and pup body weights” value (rabbits; approximately 75 times the MRHD, maternal doses up to 30 mg/kg every other day) was “Statistically significant decreases” and the teratogenicity (rabbits; approximately 75 times the MRHD, maternal doses up to 30 mg/kg twice weekly) was “not teratogenic”. The “stability diluted in infusion bags” value [6] was 4 h.
